# From PMC9034062, “Phospholipids alter activity and stability of mitochondrial membrane-bound ubiquitin ligase MARCH5” (Life Science Alliance, 2022)
# B1: MARCH5 (enzyme, human, UniProt Q9NX47 1-278, looked up)
# chain: MPDQALQQMLDRSCWVCFATDEDDRTAEWVRPCRCRGSTKWVHQACLQRWVDEKQRGNSTARVACPQCNAEYLIVFPKLGPVVYVLDLADRLISKACPFAAAGIMVGSIYWTAVTYGAVTVMQVVGHKEGLDVMERADPLFLLIGLPTIPVMLILGKMIRWEDYVLRLWRKYSNKLQILNSIFPGIGCPVPRIPAEANPLADHVSATRILCGALVFPTIATIVGKLMFSSVNSNLQRTILGGIAFVAIKGAFKVYFKQQQYLRQAHRKILNYPEQEEA
# notes: human MARCH5, cDNA codon-optimised for yeast (GenScript); Integral membrane protein, kept in the detergent LMNG; By the printed primers the TEV site is ENLYFQ/SQF, so ENLYFQ probably stays at the C-terminus after cleavage (surmised); also called M5; source: S. cerevisiae PAP1500, purified (DDM solubilisation, Ni resin with exchange to LMNG, TEV cleavage, reverse IMAC); not shown: yEGFP, …
# Target: the molecule itself
# Assay: cross-linking; BS3 cross-linker added to 19.4 uM MARCH5 in 50 mM Hepes pH 7.7, 100 mM NaCl, 5% glycerol, 0.1 mM TCEP, 0.001% LMNG; without lipid (control) and with cardiolipin at 1:10 molar ratio of protein to lipid; samples at 0, 15, 30 and 60 min; SDS-PAGE
protein,measurement,value
B1,binding result,binds
